Where two headings read alike, the source gives them in different places.
Assays:
[1] = target: T1, Human Tau, hTau40 (isoform F, the longest isoform of Tau) (human, UniProt P10636-8 1-441); experiment: other fluorescence titration
[2] = target: T1, Human Tau, hTau40 (isoform F, the …); experiment: other fluorescence titration; remark: listed apart in the source

B1: Human Hsp90β (natural protein)
chain: not shown
- Kd [1]: 5.2 ± 3 µM
- Kd [2]: 4.8 ± 1 µM

— PMC4263503 (Cell, 2014)
